Experiments:
Assay in all cases: BLI
[1] = biological target: T1, CEACAM5 (human, UniProt P06731)
T1 chain: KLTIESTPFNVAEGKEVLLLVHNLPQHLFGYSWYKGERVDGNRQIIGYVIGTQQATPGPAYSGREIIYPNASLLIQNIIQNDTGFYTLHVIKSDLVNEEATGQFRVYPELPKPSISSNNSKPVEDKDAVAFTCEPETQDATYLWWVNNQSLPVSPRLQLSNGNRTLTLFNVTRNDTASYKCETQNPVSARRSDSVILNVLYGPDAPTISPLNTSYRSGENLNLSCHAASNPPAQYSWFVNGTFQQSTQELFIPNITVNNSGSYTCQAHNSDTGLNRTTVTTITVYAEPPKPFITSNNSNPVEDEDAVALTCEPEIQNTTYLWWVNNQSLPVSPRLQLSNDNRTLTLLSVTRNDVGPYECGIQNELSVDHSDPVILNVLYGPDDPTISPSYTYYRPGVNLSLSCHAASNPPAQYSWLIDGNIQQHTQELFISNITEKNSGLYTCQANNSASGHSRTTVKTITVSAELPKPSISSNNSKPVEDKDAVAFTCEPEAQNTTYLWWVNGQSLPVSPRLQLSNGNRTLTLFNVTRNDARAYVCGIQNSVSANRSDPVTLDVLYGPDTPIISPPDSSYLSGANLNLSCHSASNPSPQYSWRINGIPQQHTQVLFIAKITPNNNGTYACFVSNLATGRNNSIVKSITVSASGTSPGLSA

[2] = biological target: T2, CEACAM3 (human, UniProt P40198)
T2 chain: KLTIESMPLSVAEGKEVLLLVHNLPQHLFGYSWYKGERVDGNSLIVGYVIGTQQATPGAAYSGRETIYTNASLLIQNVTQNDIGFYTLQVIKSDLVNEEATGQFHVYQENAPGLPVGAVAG

[3] = biological target: T3, CEACAM6 (human, UniProt P40199)
T3 chain: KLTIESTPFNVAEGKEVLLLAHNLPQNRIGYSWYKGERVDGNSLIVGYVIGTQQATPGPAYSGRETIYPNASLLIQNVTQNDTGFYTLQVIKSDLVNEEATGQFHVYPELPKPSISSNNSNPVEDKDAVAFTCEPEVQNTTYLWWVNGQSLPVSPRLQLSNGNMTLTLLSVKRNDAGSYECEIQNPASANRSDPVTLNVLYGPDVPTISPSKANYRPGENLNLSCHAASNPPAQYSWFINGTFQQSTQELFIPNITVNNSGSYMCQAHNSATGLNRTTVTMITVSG

binding result [1]: no binding
binding result [2]: no binding
binding result [3]: no binding
B1: 4D10 (antibody, V domains shown)
VH: EVQLQQSGPELVKPGASVKMSCKASGYTFSSYVIHWVRQKPGQGLEWIGYFNPYNNGTNYNENFKGKATLTSGKSSSTAYMELSSLTSEDSAVYYCARYYYASGSLYFDYWGQGTTLTVSS
VL: EIVLTQSPAIATASLGQKVTITCSASSSVSYMHWYQQKSGTSPKPWIYEISKLASGVPTRFSGSGSGTSYSLTISSMEAEDAAIYYCQQWNYPLITFGAGTKLELK

Source: patent US20260297187 (published 2026)
